The source of these data is the DeepSol protein solubility set.

The data set in a line: soluble on expression in E. coli; label from the status in PepcDB or PDB records.
For the sequence “MGSDKIHHHHHHMFSKSLEALHHAKRYRKRELFDPLLKDYASNDYLGLSVKKDLLQNAFNKLQSFVSHSPKASMLVNGYHPLHAELEERLANLLGFESALLVGSGFLGNLALIDTLLVKNALLFMDAHYHASGIFSTKIKPNQVIFFSHNDIKDLKQKLFNAPKNKIKFIAIEGVYSMDASVAPYDFYAIIQEIPNAFLIVDEAHSFGTIGENLLGFLEYYRIKEKDKIIKLSTFSKALASYGACILAPLQTIEFLTNRAKSVIYTTALSLLDTALTLAHLEYFIVQKQELKNELSKHQQIIFETLGIRTLAGFFTLEFESNPALLNAHHFLKEKGFLVGAIRPPTVSKPLLRVSLSLKNSLEDTKELANTLLNYSKIQSSFKSG”, the “soluble on expression in E. coli” value is given as “not soluble”. On to “MLKPLLAIFMISSALSIPLNRSDFLENDHVELMPLEKDGELNDKFRQEMIFSHNLDPSDSKQLSESIKEMFKKTDVNDDGFLTAGELKQQIRKNMEEHLEKSKNDSEIFFDIVDTNKDGSIVWEEFEPHFSKMHEKDHSDSELMDVHTEDPHRVDDEKRMFNRSDITRDGRLDRMEWHIFLHPEYSAQGLVEIVNDLMGVYDKNNDEVVSQDDFVNGIPGTVDELNPEFENMEKLEKERRLREFNEEIDENSDGKATFRELYDYVDPQNFRLASKEVNDIMMLTDANNDEKLSLEELLERDWLLARSSLLSARSSLHDEM”, for which the “soluble on expression in E. coli” value is on record as “not soluble”. For “MISLPSGTRIWLVAGVTDMRKSFNGLGEQVQHVLDETPFSGHLFIFRGRRGDTVKILWADADGLCLFTKRLEEGQFIWPAVRDGKVSITRSQLAMLLDKLDWRQPKTFRLNSLTML” the value was “not soluble”; for “MAHHHHHHMFQRARFLLLPIDDVLPAGSRWSRVTALPTSHAHPSGASRASRTGPVTANTTSALPPTPYITFIPTLHVASVKFYDAVLDYMRESVEKNSNVVVLLEGICDNKEGRIQQMDEYMQISRSEELRAAMLEKAEKNTLYNDETIRTICDELAVNYDVLSRELETVRLQECYLRPKMAALMGKNLCNEADIDMEEVEALMLEGDNNDHSGSYGACGSGSVVPITSIGSHPAVRRSREMKVARKARATCVDWLKHGVAGEVILPWGIYHVEGIQRNVLSLNAQDEGIVFVESGNDIRHVPFGIHRDLLVL”, “not soluble”.

For “MQVTHKILKIPSKGYRKILSLLNEKGQARLIGGCVRDALLDLLHNKTNKEEFEGDTERRIAMYINVREDSSTGSTYKLPLEASYPRDRLEKGSCDIDIATNLTPSEVTNILSGAKIKTIPTGLKFGTITATLNNEKFEITTLRKDIECNGRHAKVIFTNDFAEDAARRDFTINALSYCPFKNEIYDYFEGFKDLQQEKVVFIGEALDRIKEDYLRILRFFRFSSYYANQLDDGNFKACKALKDGLKTLSRERIKSEMDKIIVSKRAAQILKAMFEIGILELIFSIQNYEIKFFEQANDFKLELVTRYALLLYCQKDLNLKVFLDWKFSKHEAMQILSITNFLNDAKFNMKKIWFEKKNYKEYLLAARIIGKLNHSQVKEFILKYDALLRPKFQVNGNDLLNMNIEKKKIGAKLEYLKNFWIEQDFKPSKLELLAKL”, the “soluble on expression in E. coli” value is “soluble”. As for “MQILTLISWDFKRNNNFFNQAVLNPYEYWADILEKNGISRYVILLTCNRVEIYLRAGFPEDLEAMKPNVLHDEEAIKHLMEVSSGLDSMSLGENEILKQVKEAYELSVRNGKVDKVLSLIFQKAIFVGKKVRSETEISRGKVSVPSIVYDILSSRVVQKVLIIGNGMIAGEIAPYLSGKFEVTIAGRNIDHVKDLASKYNYSYTTINDLHELIMRNDAIISATSSKTPIIRREEMVEGKLYIDLGNPRNIEDKPGADIITIDDIYSVSNRNGSARMESVDEARRIIEIEMASLMNKIKDVMIDEIFADFYKFAVVVQKMEIEKFSRMHPEIPASDVEAFAHSMINKVMNIPVMTLKSVARSQSNQDFSRIFSKFYDNFSDLVSAALQSYEGRQDTQSLRDRTRRLLQRS”, the “soluble on expression in E. coli” value is “not soluble”.

As to “MYLVCGEALFDVFSLESAARSNELGFTAIAGGSPFNVAVGLRRLGVEAALFGGLSSDYLGARLRRVLEEEGVDCGFLVPSDAPTTLAMVGLDASGSAQYQFRGEGCADRQVRLEHLPTLDGRIRGLHVGSYTLVVTPVADTLLALVRRESGRRLVSLDPNVRLDPQPDIDLWRRRVEAFASHAHLIKASEEDLALLYPGRDPGEVARGWLNPRCRLVFVTHGGAGASVHCTHGSWSRPADTALPLRDTVGAGDTFQAATLAYLRRLDADSPAGLAALSREAIDAMLAFAIRAAAVTCSRVGPDLPFAHEL”, the “soluble on expression in E. coli” value was “not soluble”. “TPPSGSGNWESLFNGLYRLQQRQRRKRKELTNLIRRFRNGAESLPDAVVVFRAEGNIVWCNRLAQHLLGFHWPEDSGQPISNLIRTPDFIKYLNKKDFSEPLEMRSPLNVERMLELRIVPYTEGEHLMVVRD”: the “soluble on expression in E. coli” value is given as “not soluble”. “MAHHHHHHVDDDDKMVSTTPAAGVLDTSVFIATESGRQLDEALIPDRVATTVVTLAELRVGVLAAATTDIRAQRLATLESVADMETLPVDDDAARMWARLRIHLAESGRRVRINDLWIAAVAASRALPVITQDDDFAALDGAASVEIIRV”: the “soluble on expression in E. coli” value is given as “soluble”. For “SNANEAQQYYLDADEAEAWIGEQELYVISDEIPKDEEGAIVMLKRHLRQQRAVEDYGRNIKQLASRAQGLLSAGHPEGEQIIRLQGQVDKHYAGLKDVACERKRKLENMYHLFQLKRETDDLEQWISEKELVASSPEMGQDFDHVTLLRDKFRDFARETGAIGQERVDNVNAFIERLIDAGHSEAATIAEWKDGLNEMWADLLELIDTRMQLLAASYDLHRYFYTGAEILGLIDEKHRELPEDVGLDASTAESFHRVHTAFERDVHLLGVQVQQFQDVATRLQTAYAGEKAEAIQNKEQEVSAAWQALLDACAGRRTQLVDTADKF” the value was “soluble”. For “MFQVQKELASHEAVVVALFEEEKTSSFVQELDKAFEGQLQVLLEEKELSTKKKAISKVHSLGKTDVKRYYFVGLGKKESYTTETLRSALGKTFKTLQAAKVQDAAILLDSFVTEKLDAIDVAHIAAEVQGLGTYELQTYKSDKKDRVELEKFTAITAEDAQEIEAALTVGYVHGRATNSARTLVNMPPNVLTATKLAEYAVELAEKYDMDYKVLEKEEMEELGMGALLAVNQGSVEPPKMIALIYKGKEEWTDVIGFVGKGITYDTGGYSLKPREGMVGMKGDMGGAAAVLGAMEIIGELRPEQNVIAVIPSTDNVVSGTAFKPDDVITSMSGKTIEVLNTDAEGRLALADGITYAKKLGANYLIDVATLTGGVIVALGNHTTGAMTNNEELFEQVLEASMETDESIWQLPIFDRDKERVRNSKFADLNNSPGREGHAVMAGTFIGEFAEDTPWVHLDIAGTSESSGAHDLGPAGATGAMVRTLATLVERFGEE” the value was “not soluble”; for “MSLSTLQDLEKTLWATADKMRANMDPAEYKHIVLGLIFLKYISDSFAGRRAELERKFSDAGDDYYLGGDDPTYLASELEERDYYKEVNVFWVPEPARWESLRAAAKQVDIGKRIDDALADIEAENPQLKNILDKRYARAQLPDGKLGELVDMISIIGFSSDANKARDLLGQVYEYFLGQFASAEGKRGGQFYTPASIVKTLVAVLNPHHGKVYDPCCGSGGMFVQSEKFIEAHGGKLGDVSIYGQESNPTTWRLAAMNLAIRGMDFNLGKEPADSFIRNQHSDLRADFVLANPPFNISDWWHGSLDGDSRWVYGTPPQGNANYAWLQHMLFHLKSSGRAGIVLANGSMSSSQNSEGDIRRAMVEADVVEVMVALPGQLFFNTQIPACLWFLAKQKNKRPGEVLFIDARKLGTNISRVQIELLDSDIESIAQTVANWRGVPLEVDGEIAEYADVAGFCRSVPLAEIAEHGHVLTPGRYVGAEAVEDDDEAFADKMQDLTALLGEQLAKGTELDQLIRHKLGGLGYEEGHHHHHH”, “soluble”.

Take “MADDSVLPSPSEITSLADSSVFDSKVAEMSKENLCLASTSNVDEEMPQVEARVIMVQDAGKQEELLKALKEMKVPCVKMDSMEEFESLDSPEFENIFVVTDFQNSVFNDLYKADCRIVGPPVILNCAQRGEPLPFSCRPLYCTSMLNLVLCFTGFRKKEELVKLVTLVHHMGGVIRKECNSKVTHLVANCTQGEKFRVAVSLGTPIMKPEWIYKAWERRNEQCFCAAVDDFRNEFKVPPFQDCILSFLGFSDEEKHSMEEMTEMQGGSYLPVGDERCTHLIVEENTVKDLPFEPSKKLFVVKQEWFWGSIQMDARAGETMYLYEKANTPELKKSVSLLSLSTPNSNRKRRRLKETLAQLSRETDLSPFPPRKRPSAEHSLSIGSLLDISNTPESSIHYGETPKSCAKSSRSSTPVPPKQSARWQVAKELYQTESNYVNILATIIQLFQVPLEEEGQRGGPILAPEEIKTIFGSIPDIFDVHMKIKDDLEDLIANWDESRSIGDIFLKYAKDLVKTYPPFVNFFEMSKEMIIKCEKQKPRFHAFLKINQAKPECGRQSLVELLIRPVQRLPSVALLLNDLKKHTADENPDKSTLEKAIGSLKEVMTHINEDKRKTEAQKQIFDVVYEVDGCPANLLSSHRSLVQRVETVSLGEHPCDRGEQVTLFLFNDCLEIARKRHKVIGTFRSPHDRTRPPASLKHIHLMPLSQIKKVLDIRETEDCHNAFALLVRPPTEQANVLLSFQMTSEELPKESWLKMLCRHVANTICKADAENLMYVADPESFEVNTKDMDSTLSRASRAIKKTSKKVTRAFSFSKTPKRALRMALSSSHSSEGRSPPSSGKLAVSRLSSTSSLAGIPSPSLVSLPSFFERRSHTLSRSTTHLI”: the “soluble on expression in E. coli” value is reported as “soluble”. Next, “STARVICAGFGGQGVMSMGQLLTYAGMLEGKEVSWLPSYGPEMRGGTANCAVTVSNEPVGSPLITDDATAAILLNIPAFEKFKDDVIPGGKIIVNSSLIKEKVDRTDVDVYYIPANELAAELGNDKVANMIMLGAYLKVSDTVDIESVLEAFKKVFGPRKEKFVPLNREALQKGMDATC”: “not soluble”; “MRITLVDHPLVQHKLAHLRDKRTGPKDFRELAEEVAMLMAYEAMRDLELEETTVETPIAPARVKVLSGKKLALVAILRAGLVMVEGILKLVPHARVGHIGLYRDPESLNPVQYYIKLPPDIAERRAFLLDPMLATGGSASLALSLLKERGATGVKLMAILAAPEGLERIAKDHPDTEVVVAAIDERLNDHGYIVPGLGDAGDRIYGTK”: “soluble”. For “MSLSRLSSPQTFSRVFIVARGAATGHAVAPSSDNSIGYFEKIAYRFKGIPLPTETEAPKSMFDACNKEWSAPELLPSVPKDFKEHPDRDLTNYPYPSRPMYPPKTRLLMMPDSWFTAFQKVTGTSGPYLFFGGLFAFLVNKELWVFEEQGHMTVGWILFYLLVSRTAGYKIDAGLYKDYQERVGFFKGLIQEDLKEAVDFRKTSAAQTASFAALKEGMPTSLKDSMQLQLEAAYRKNVQTISNEIKRRIEYLKETEETKARFERDQLLKLINDSVEKQVSQKDFQEKFLQNAIQQLKGIAV” the value was “not soluble”. For “MAGDPNSMKYSDLRDFIAQLESRELLKRIDYPVSPHLEMTLVSDKVLRSGGPALLFTNTPNYNMPVLTNLFGTVERVALGMGEESIVALREIGKLLAALKEPDPPKGFKDAFSKLPLLKQALNMAPKYVSGAECQTHVWEKDEVDLTLLPIQTCWPGDVAPLITWGLVTTRGPHQSRENMGIYRQQLLSKNKLIMRWLSHRGGALDYQAWQQEYPKERFPVAVTLGADPATILAAVTPVPDTLSEYAFAGLLRGQRTRLTRCIGNDLHVPASAEIVLEGYLEPGNEAPEGPYGDHTGYYNEVQSFPVFTVERITHRDKPIYHSTYTGRPPDEPAILGVALNEVFIPLLQKQFPEIVDFYLPPEGCSYRLAVVTIKKQYPGHAKRIMMAVWSFLRQFMYTKFVIVCDDDVDARNWQDVIWAMTTRMDPSRDTVMVENTPIDYLDFASPVSGLGSKMGMDATSKWPGETQREWGKPITMDEDVLNRVNGYWSLLGLKLEHHHHHH” the value was “not soluble”.
